Source: publication PMC8376421

Molecular target: recombinant hACE2-AviTag protein (human) (UniProt Q9BYF1)
Assay: SPR

Sequence of UniProt Q9BYF1 (Q9BYF1 18-740): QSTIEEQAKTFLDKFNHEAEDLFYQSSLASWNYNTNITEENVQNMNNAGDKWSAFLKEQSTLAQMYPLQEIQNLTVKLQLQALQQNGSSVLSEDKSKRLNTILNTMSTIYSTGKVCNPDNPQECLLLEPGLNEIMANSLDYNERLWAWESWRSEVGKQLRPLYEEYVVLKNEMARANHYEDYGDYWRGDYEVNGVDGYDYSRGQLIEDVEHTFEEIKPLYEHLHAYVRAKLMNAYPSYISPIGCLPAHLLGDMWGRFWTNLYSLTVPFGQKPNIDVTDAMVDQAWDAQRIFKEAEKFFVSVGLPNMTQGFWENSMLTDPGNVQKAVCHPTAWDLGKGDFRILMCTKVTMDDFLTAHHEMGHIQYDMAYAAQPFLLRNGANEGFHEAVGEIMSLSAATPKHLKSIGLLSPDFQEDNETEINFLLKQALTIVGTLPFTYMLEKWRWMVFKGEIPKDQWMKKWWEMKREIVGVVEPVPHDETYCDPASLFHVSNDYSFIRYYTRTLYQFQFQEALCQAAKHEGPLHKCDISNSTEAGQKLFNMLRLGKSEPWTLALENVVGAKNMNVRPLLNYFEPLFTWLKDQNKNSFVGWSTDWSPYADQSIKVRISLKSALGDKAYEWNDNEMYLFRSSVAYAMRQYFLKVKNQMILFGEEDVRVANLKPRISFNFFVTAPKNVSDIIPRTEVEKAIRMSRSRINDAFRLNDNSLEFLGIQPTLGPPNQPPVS

## SARS-CoV-2 spike RBD-MBP fusion protein (domain or fragment)
  Kd: 19 nM
